Assay results taken from the Immune Epitope Database (IEDB).

How the values were obtained:
Assay in all cases: IEDB peptide-MHC binding, purified MHC/competitive/radioactivity; filed as Kd, often an IC50 or EC50 that approximates it; ≥ and ≤ were set here for values at or beyond the usual limits of such assays
HLA-A*03:01 = molecular target: HLA-A*03:01
HLA-A*11:01 = molecular target: HLA-A*11:01
HLA-A*31:01 = molecular target: HLA-A*31:01
HLA-A*33:01 = molecular target: HLA-A*33:01
HLA-A*68:01 = molecular target: HLA-A*68:01
[1] = source organism: SARS coronavirus Tor2
[2] = source organism: Vaccinia virus WR
[3] = source organism: Vaccinia virus LC16M8
[4] = source organism: Vaccinia virus Copenhagen
[5] = source organism: Dengue virus 3 Martinique/1243/1999
[6] = source organism: Dengue virus 2 Jamaica/1409/1983

Sequence	Kd (HLA-A*03:01; [2]) [nM]	Kd (HLA-A*11:01; [2]) [nM]	Kd (HLA-A*31:01; [2]) [nM]	Kd (HLA-A*33:01; [2]) [nM]	Kd (HLA-A*68:01; [2]) [nM]	also measured
KFTTSLSLHK	–	–	–	–	–	Kd (HLA-A*03:01; [1]): 275 nM; Kd (HLA-A*11:01; [1]): 135 nM; Kd (HLA-A*31:01; [1]): 239 nM; Kd (HLA-A*33:01; [1]): 8190 nM; Kd (HLA-A*68:01; [1]): 302 nM
KIVDHIVMY	17.9	92.2	11800	≥ 24800	7980	–
KLITPNYMK	10.3	5.08	486	≥ 59300	2790	–
KSEFNTYKR	–	–	–	–	–	Kd (HLA-A*31:01; source organism: Dengue virus 1 Brazil/97-11/1997): 1340 nM
KSKNINIEVK	305	568	1070	≥ 70000	13300	–
KSSSIDVDKR	2630	550	84.4	8180	17	–
KTDFKVVKK	14.8	60.6	71.1	1210	365	–
LFASADNHPK	–	–	–	–	–	Kd (HLA-A*03:01; [3]): 399 nM; Kd (HLA-A*11:01; [3]): 85.9 nM; Kd (HLA-A*31:01; [3]): 9330 nM; Kd (HLA-A*33:01; [3]): 9860 nM; Kd (HLA-A*68:01; [3]): 264 nM
LSRLRYNLCK	92.9	715	206	2640	3510	–
LTIKDSSNK	827	14.9	≥ 34800	≥ 77700	9.14	–
LTILDDNLYK	–	–	–	–	–	Kd (HLA-A*03:01; [4]): 229 nM; Kd (HLA-A*11:01; [4]): 3.38 nM; Kd (HLA-A*31:01; [4]): 6840 nM; Kd (HLA-A*33:01; [4]): 17700 nM; Kd (HLA-A*68:01; [4]): 19.5 nM
LTMKAIEKDR	12100	280	595	6250	65.5	–
MGYWIESQK	–	–	–	–	–	Kd (HLA-A*03:01; [5]): 12.8 nM; Kd (HLA-A*68:01; [5]): 67.2 nM
MIIKHIYEQY	≥ 70100	5780	≥ 70000	≥ 70000	140	–
MLAHAEETRK	–	–	–	–	–	Kd (HLA-A*03:01; [1]): 496 nM; Kd (HLA-A*11:01; [1]): 6390 nM; Kd (HLA-A*31:01; [1]): 9410 nM; Kd (HLA-A*33:01; [1]): ≥ 70000 nM; Kd (HLA-A*68:01; [1]): 157 nM
MLNILNGRKR	–	–	–	–	–	Kd (HLA-A*31:01; source organism: Dengue virus 4 Philippines/H241/1956): 17.3 nM
MSLSEQLRK	–	–	–	–	–	Kd (HLA-A*03:01; [1]): 8.24 nM; Kd (HLA-A*11:01; [1]): 4.01 nM; Kd (HLA-A*31:01; [1]): 181 nM; Kd (HLA-A*33:01; [1]): 4730 nM; Kd (HLA-A*68:01; [1]): 169 nM
MWTLMYFHRR	–	–	–	–	–	Kd (HLA-A*31:01; [6]): 33.6 nM; Kd (HLA-A*33:01; [6]): 29.8 nM
NATDFWRLY	44.1	126	477	526	52.3	–
